Here are results for 1 molecule from paper PMC5878720.

The target of this assay is T1, IL-11Rα (human (endogenous in RA ST fibroblasts and HUVECs)) (UniProt Q14626).
T1 sequence: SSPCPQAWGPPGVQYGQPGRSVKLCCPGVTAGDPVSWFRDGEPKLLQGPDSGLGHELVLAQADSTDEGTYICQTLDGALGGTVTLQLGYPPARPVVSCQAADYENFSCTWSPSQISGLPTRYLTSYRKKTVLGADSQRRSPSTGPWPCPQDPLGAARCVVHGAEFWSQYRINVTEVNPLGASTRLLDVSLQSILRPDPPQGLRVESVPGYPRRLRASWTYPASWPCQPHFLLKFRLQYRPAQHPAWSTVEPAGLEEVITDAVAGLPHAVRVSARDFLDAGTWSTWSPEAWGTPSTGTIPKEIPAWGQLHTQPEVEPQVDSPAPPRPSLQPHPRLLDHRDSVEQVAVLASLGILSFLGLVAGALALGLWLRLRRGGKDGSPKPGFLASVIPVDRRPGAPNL

B1: IL-11 (ligand)
chain: PGPPPGPPRVSPDPRAELDSTVLLTRSLLADTRQLAAQLRDKFPADGDHNLDSLPTLAMSAGALGALQLPGVLTRLRADLLSYLRHVQWLRRAGGSSLKTLEPELGTLQARLDRLLRRLQLLMSRLALPQPPPDPPAPPLAPPSSAWGGIRAAHAILGGLHLTLDWAVRGLLLLKTRL
In turn, B1 yielded an HUVEC transwell migration, 24h, IL-11 1-100 ng/ml, fold over control of 3 to 15 fold.
